# Reference: patent US6767716B2, “Chemluminescent systems containing unsaturated 1,2-dioxetanes” (priority 2000, dated 2004)
# Assay: Stability of diluted alkaline phosphatase in the enzyme diluent
# Assay type: physicochemical
# Conditions: ≅100 molecules of alkaline phosphatase per ml of diluent, stored at 4° C.
# Text: As is known to those skilled in the art, the stability of the enzyme is the most important factor in the detection of biological molecules. The present invention utilizes a unique diluent or buffer based upon the composition of human blood serum. The present diluent is a tris-buffer containing proteins, metal halides such as sodium chloride, potassium chloride, magnesium chloride, zinc chloride, and the like, alcohols or polyhydric alcohols and sodium azide. The pH of the buffer is between 7.5 to 8.5.
substance,measurement,value
alkaline phosphatase,stability of enzyme in diluent,stable at least for one week
